Reference: PMC7483370 (Molecular cell, 2020)

B1: Flag-tagged AR (1-669aa), deletion mutant lacking the LBD (domain or fragment, human, UniProt P10275 1-669, looked up)
chain: MEVQLGLGRVYPRPPSKTYRGAFQNLFQSVREVIQNPGPRHPEAASAAPPGASLLLLQQQQQQQQQQQQQQQQQQQQQQQETSPRQQQQQQGEDGSPQAHRRGPTGYLVLDEEQQPSQPQSALECHPERGCVPEPGAAVAASKGLPQQLPAPPDEDDSAAPSTLSLLGPTFPGLSSCSADLKDILSEASTMQLLQQQQQEAVSEGSSSGRAREASGAPTSSKDNYLGGTSTISDNAKELCKAVSVSMGLGVEALEHLSPGEQLRGDCMYAPLLGVPPAVRPTPCAPLAECKGSLLDDSAGKSTEDTAEYSPFKGGYTKGLEGESLGCSGSAAAGSSGTLELPSTLSLYKSGALDEAAAYQSRDYYNFPLALAGPPPPPPPPHPHARIKLENPLDYGSAWAAAAAQCRYGDLASLHGAGAAGPGSGSPSAAASSSWHTLFTAEEGQLYGPCGGGGGGGGGGGGGGGGGGGGGGGEAGAVAPYGYTRPPQGLAGQESDFTAPDVWYPGGMVSRVPYPSPTCVKSEMGPWMDSYSGPYGDMRLETARDHVLPIDYYFPPQKTCLICGDEASGCHYGALTCGSCKVFFKRAAEGKQKYLCASRNDCTIDKFRRKNCPSCRLRKCYEAGMTLGARKLKKLGNLKLQEEGEASSTTSPTEETTQKLTVSHIEGYE
B2: SRC-3, purified recombinant (baculovirus) (natural protein)
chain: not shown

How the values were obtained:
[1] = target: p300, purified recombinant (baculovirus) (human, UniProt Q09472 1-2414); test: co-IP
Chain of p300, purified recombinant (baculovirus) (Q09472 whole entry): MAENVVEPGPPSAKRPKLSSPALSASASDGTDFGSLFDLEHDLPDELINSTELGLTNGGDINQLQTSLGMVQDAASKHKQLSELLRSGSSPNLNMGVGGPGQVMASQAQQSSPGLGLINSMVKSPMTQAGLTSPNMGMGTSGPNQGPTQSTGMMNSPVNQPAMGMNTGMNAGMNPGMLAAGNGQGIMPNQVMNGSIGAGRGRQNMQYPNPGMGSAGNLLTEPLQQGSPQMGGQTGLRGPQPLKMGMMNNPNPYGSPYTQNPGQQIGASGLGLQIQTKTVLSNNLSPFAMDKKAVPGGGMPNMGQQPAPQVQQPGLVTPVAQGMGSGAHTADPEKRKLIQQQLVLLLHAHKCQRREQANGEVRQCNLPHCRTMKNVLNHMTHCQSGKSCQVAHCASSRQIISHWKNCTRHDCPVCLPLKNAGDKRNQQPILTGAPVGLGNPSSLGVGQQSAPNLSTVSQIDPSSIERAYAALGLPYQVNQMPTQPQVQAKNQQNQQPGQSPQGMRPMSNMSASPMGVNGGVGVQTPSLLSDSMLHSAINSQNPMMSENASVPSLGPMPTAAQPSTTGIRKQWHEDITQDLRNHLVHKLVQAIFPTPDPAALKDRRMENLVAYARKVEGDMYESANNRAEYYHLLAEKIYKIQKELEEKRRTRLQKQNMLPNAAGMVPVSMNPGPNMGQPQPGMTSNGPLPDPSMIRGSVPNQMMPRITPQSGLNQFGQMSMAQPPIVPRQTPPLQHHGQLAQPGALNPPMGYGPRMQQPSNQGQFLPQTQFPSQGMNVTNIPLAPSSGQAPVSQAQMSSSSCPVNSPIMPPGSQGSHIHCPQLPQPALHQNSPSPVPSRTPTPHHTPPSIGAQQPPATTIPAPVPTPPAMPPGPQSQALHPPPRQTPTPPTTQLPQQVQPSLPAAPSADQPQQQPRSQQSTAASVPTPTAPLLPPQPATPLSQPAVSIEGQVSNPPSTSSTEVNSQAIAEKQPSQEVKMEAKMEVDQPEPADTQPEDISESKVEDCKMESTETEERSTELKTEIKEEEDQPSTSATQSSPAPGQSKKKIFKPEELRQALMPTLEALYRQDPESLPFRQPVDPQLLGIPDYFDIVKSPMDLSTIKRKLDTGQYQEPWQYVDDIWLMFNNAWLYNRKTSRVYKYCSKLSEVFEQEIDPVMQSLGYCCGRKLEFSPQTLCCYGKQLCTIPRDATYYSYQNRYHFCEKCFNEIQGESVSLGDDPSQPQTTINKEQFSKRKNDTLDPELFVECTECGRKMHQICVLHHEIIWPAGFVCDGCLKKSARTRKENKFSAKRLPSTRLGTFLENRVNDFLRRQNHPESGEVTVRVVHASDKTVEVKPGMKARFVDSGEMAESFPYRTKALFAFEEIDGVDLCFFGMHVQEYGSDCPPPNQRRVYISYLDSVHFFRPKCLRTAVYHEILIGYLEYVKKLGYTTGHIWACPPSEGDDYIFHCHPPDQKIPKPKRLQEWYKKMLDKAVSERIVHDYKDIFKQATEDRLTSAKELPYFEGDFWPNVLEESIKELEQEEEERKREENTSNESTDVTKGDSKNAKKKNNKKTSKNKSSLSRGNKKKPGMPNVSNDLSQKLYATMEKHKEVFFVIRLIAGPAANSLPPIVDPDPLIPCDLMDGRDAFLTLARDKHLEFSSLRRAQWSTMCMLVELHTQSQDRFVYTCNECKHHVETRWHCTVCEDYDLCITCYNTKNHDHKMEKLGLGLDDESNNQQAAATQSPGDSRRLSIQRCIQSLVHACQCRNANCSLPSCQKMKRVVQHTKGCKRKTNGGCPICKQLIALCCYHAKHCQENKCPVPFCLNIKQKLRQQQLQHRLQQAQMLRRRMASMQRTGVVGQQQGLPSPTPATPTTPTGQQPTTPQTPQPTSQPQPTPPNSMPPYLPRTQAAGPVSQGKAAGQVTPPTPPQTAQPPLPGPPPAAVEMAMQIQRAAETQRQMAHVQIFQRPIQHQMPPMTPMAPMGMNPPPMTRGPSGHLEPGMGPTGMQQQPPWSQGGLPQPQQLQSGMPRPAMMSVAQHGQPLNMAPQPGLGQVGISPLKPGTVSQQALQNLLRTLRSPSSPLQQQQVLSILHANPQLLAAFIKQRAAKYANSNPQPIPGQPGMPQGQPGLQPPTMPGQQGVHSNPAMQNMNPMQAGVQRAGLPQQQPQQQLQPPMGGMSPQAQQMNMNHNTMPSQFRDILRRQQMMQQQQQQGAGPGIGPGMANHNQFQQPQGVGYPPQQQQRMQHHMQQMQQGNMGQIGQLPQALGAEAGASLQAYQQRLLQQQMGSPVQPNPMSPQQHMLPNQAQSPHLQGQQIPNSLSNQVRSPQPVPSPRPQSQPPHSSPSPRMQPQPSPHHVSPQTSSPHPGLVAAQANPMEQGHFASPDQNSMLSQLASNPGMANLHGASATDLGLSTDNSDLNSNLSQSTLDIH

[2] = target: T1, Androgen receptor, full-length, flag-tagged, recombinant (baculovirus) (human, UniProt P10275 1-920); test: cryo-EM structure
T1 sequence (looked up): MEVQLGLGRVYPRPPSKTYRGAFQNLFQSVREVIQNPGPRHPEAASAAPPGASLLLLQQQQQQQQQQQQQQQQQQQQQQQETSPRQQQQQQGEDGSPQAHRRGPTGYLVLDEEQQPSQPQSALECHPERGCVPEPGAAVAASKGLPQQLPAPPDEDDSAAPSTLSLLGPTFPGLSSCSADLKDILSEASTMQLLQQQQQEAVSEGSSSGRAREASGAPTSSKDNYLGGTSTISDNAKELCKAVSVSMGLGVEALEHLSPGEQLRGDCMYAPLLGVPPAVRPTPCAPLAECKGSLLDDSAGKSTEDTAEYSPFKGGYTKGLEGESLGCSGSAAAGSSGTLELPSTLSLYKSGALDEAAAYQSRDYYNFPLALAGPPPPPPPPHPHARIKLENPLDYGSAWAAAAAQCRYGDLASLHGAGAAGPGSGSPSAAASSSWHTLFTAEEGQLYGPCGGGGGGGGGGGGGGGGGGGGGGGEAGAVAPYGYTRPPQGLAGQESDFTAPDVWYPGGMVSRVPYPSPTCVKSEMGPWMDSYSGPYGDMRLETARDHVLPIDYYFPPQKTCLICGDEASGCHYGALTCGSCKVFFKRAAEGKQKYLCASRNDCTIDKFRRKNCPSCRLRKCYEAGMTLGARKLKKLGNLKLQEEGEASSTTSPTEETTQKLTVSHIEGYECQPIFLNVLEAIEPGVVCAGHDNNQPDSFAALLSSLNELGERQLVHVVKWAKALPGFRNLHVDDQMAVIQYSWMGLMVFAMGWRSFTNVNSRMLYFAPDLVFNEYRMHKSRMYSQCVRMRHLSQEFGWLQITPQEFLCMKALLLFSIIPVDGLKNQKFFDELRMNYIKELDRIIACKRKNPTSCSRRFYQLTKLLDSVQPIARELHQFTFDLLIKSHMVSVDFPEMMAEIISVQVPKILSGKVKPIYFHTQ

| Binder | binding result [1] | stoichiometry N [2] |
| --- | --- | --- |
| B1 | binds | – |
| B2 | – | 1 |
